Assay results from article doi:10.1101/2024.03.25.586599 (bioRxiv, 2024).
Numbering of substitutions follows the chain as printed. Names may count otherwise. Ends that are not written are not given here. * marks the point of attachment. Biotin = O=C1N[C@H]2[C@H](CS[C@H]2CCCCC(=O)*)N1

How the values were obtained:
Assay in all cases: SPR
[1] = target: T1, N-terminally biotinylated synthetic FLAG peptide, six-residue truncated version (DYKDDD) (synthetic construct)
T1 chain: Biotin-DYKDDD

[2] = target: T2, N-terminally biotinylated synthetic FLAG peptide, 4-residue variant (DYKD) (synthetic construct)
T2 chain: Biotin-DYKD

[3] = target: T3, N-terminally biotinylated synthetic FLAG peptide, Asp5Glu (DYKDEDDK) (synthetic construct, point mutant, not fully specified (N-terminus))
T3 chain: DYKDEDDK

[4] = target: T4, N-terminally biotinylated synthetic FLAG peptide, wildtype (DYKDDDDK) (synthetic construct, not fully specified (N-terminus))
T4 chain: DYKDDDDK

[5] = target: T5, N-terminally biotinylated synthetic FLAG peptide, 5-residue variant (DYKDD) (synthetic construct)
T5 chain: Biotin-DYKDD

[6] = target: T6, N-terminally biotinylated synthetic FLAG peptide, truncated, Asp5Glu (DYKDED) (synthetic construct, point mutant)
T6 chain: Biotin-DYKDED

[7] = target: T3, N-terminally biotinylated synthetic …
[8] = target: T4, N-terminally biotinylated synthetic …
[9] = target: T7, N-terminally biotinylated synthetic FLAG peptide truncated by one C-terminal residue (DYKDDDD) (synthetic construct)
T7 chain: Biotin-DYKDDDD

[10] = target: T7, N-terminally biotinylated synthetic …
[11] = target: T1, N-terminally biotinylated synthetic …
[12] = target: T2, N-terminally biotinylated synthetic …
[13] = target: T5, N-terminally biotinylated synthetic …
[14] = target: T6, N-terminally biotinylated synthetic …

B1: anti-FLAG M2 IgG (wildtype, recombinant) (antibody, V domains shown)
VH: QVQLQQSAAELARPGASVKMSCKASGYSFTTYTIHWVKQRPGQGLEWIGYINPSSGYAAYNQNFKDETTLTADPSSSTAYMELNSLTSEDSAVYYCAREKFYGYDYWGQGATLTVSS
VL: DVLMTQIPLSLPVSLGDQASISCRSSQSIVHRNGNTYLEWYLLKPGQSPKLLIYKVSNRFSGVPDRFSGSGSGTDFTLKISRVEAEDLGVYYCFQGSHVPYTFGGGTKLEIR
With B1 the “KD, first site (two-site binding model)” value [1] was 9.72 ± 2.6 nM, the “KD, first site (two-site binding model)” value [2] was 52.9 ± 22.1 nM and the “KD, first site (two-site binding model)” value [3] was 2.23 ± 0.25 nM. The “KD, first site (two-site binding model)” value [4] was 2.95 ± 0.31 nM, the “KD, first site (two-site binding model)” value [5] was 154 ± 100 nM and the “KD, first site (two-site binding model)” value [6] was 10.2 ± 0.48 nM.

B2: anti-FLAG M2 Fab (wildtype, recombinant) (Fab, V domains shown)
VH: B1 VH
VL: B1 VL
Binder B2 has a Kd [7] of 1780 ± 130 nM and a Kd [8] of 1910 ± 240 nM.

B3: anti-FLAG M2 IgG, heavy chain K100R (antibody, V domains shown)
VH: B1 VH with K100R
VL: B1 VL
B3 was tested, and the “fold drop in affinity against the wildtype IgG” value [9] was roughly 20 fold, the “fold drop in affinity against the wildtype IgG” value [1] was roughly 20 fold and the “fold drop in affinity against the wildtype IgG” value [2] was roughly 20 fold. For the same binder, the “fold drop in affinity against the wildtype IgG” value [3] was roughly 20 fold, the “fold drop in affinity against the wildtype IgG” value [4] was roughly 20 fold and the “fold drop in affinity against the wildtype IgG” value [5] was roughly 20 fold. The “fold drop in affinity against the wildtype IgG” value [6] was roughly 20 fold.

B4: anti-FLAG M2 Fab, heavy chain K100R (Fab, V domains shown)
VH: B1 VH with K100R
VL: B1 VL
With B4 the “fold drop in affinity against the wildtype Fab” value [10] was roughly 20 fold, the “fold drop in affinity against the wildtype Fab” value [11] was roughly 20 fold and the “fold drop in affinity against the wildtype Fab” value [12] was roughly 20 fold. The “fold drop in affinity against the wildtype Fab” value [7] was roughly 20 fold, the “fold drop in affinity against the wildtype Fab” value [8] was roughly 20 fold and the “fold drop in affinity against the wildtype Fab” value [13] was roughly 20 fold. For the same binder, the “fold drop in affinity against the wildtype Fab” value [14] was roughly 20 fold.
